Assay results published in paper PMC12800186, “Intelectin-2 is a broad-spectrum antimicrobial lectin” (Nature Communications, 2026).
Where “and” joins values, the source holds several entries; their conditions need not be identical. Identical values can stand only once.

B1: StrepII-tagged human intelectin-2 (A177S, C311G) (natural protein, UniProt Q8WWU7 27-325, looked up)
chain: AAASSLEMLSREFETCAFSFSSLPRSCKEIKERCHSAGDGLYFLRTKNGVVYQTFCDMTSGGGGWTLVASVHENDMRGKCTVGDRWSSQQGNKADYPEGDGNWANYNTFGSAEAATSDDYKNPGYYDIQAKDLGIWHVPNKSPMQHWRNSSLLRYRTNTGFLQRLGHNLFGIYQKYPVKYRSGKCWNDNGPAIPVVYDFGDAKKTASYYSPYGQREFVAGFVQFRVFNNERAANALCAGIKVTGCNTEHHCIGGGGFFPQGKPRQCGDFSAFDWDGYGTHVKSSGSREITEAAVLLFYR
notes: Human intelectin-2 (hItln2, ITLN2), cDNA AY358905; secreted from HEK293 cells; mass and extinction coefficient were calculated without the signal peptide; A177S introduces a glycosylation site, C311G removes an unpaired cysteine; For low pH and low salt experiments the protein was exchanged into PIPES buffer, pH 5.5; also called hItln2; StrepII-hItln2; source: suspension-adapted HEK293 cells, …
B2: StrepII-tagged mouse intelectin-2 (natural protein, UniProt Q80ZA0 20-313, looked up)
chain: AEENLDTNRWGNSFFSSLPRSCKEIKQEDTKAQDGLYFLRTENGVIYQTFCDMTTAGGGWTLVASVHENNLRGRCTVGDRWSSQQGNRADYPEGDGNWANYNTFGSAEGATSDDYKNPGYFDIQAENLGIWHVPNNSPLHTWRNSSLLRYRTFTGFLQRLGHNLFGLYQKYPVKYGEGKCWTDNGPAFPVVYDFGDAQKTASYYSPSGRNEFTAGYVQFRVFNNERAASALCAGVRVTGCNTEHHCIGGGGFFPEFDPEECGDFAAFDANGYGTHIRYSNSREITEAAVLLFYR
modifications: glycosylated (N-glycosylation examined with PNGase F)
notes: Mouse intelectin-2 (mItln2), GenBank AAO60215, UniProt Q80ZA0; amplified from the start to the stop codon and secreted from HEK293 cells; mass and extinction coefficient were calculated without the signal peptide; Non-covalent oligomers of variable size; also called mItln2; strep-mItln2; source: suspension-adapted HEK293 cells, transient transfection, purified from the expression medium …

How the values were obtained:
[1] = biological target: the molecule itself; assay: not stated; recombinant StrepII-hItln2; covalent trimers and higher-order oligomers (Supplementary Fig. 8E, F)
[2] = biological target: the molecule itself; assay: cross-linking; 1 mg/mL mItln2 in HEPES/EDTA buffer with BS3 (0.1-5 mM), RT, 30 min; SDS-PAGE with DTT

| Protein | stoichiometry N [1] | stoichiometry N [2] |
| --- | --- | --- |
| B1 | ≥ 3 | – |
| B2 | – | 2 and 3 and 6 |
